T1: human BCMA on cells (human, UniProt Q02223 1-184)
T1 construct: whole, on cells; also called CHO-hBCMA cells; U266 cells
T1 sequence (looked up): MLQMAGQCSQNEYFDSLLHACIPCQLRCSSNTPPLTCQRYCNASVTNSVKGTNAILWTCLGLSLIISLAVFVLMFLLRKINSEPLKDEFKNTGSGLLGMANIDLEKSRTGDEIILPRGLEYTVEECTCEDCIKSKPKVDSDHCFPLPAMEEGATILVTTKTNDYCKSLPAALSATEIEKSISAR

T2: human BCMA protein (human, UniProt Q02223 1-54, limits assumed)
T2 construct: also called hBCMA; Antigen BCMA
T2 sequence (looked up): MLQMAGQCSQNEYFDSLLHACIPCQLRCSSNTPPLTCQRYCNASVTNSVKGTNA


Key:
human BCMA on cells [1] = target: T1, human BCMA on cells; test: flow cytometry, MM1S cells
Method: (§1) NCI-H929 cells (BCMA+++), MM1S cells (BCMA++), and RPMI-8226 cells (BCMA+) in the logarithmic growth phase were taken, adjusted to a cell density of 5×10⁶-10×10⁶ cells/mL using RPMI medium (Hyclon, catalog No. SH30809.01) containing 2% FBS (fetal bovine serum), respectively, and seeded in a 96-well U-bottom cell culture plate (Costar, catalog No. 3799) at 50 μL per well. The test antibodies at different concentrations were prepared using the medium described above. […] The antibodies at different concentrations were added to the 96-well cell culture plate described above at 50 μL per well, mixed well and incubated at 4° C. for 1 h. The cells were washed with pre-cooled running buffer (MACS, catalog No. 130-091-221), and the supernatant was discarded. Pre-cooled fluorescent labeled goat anti-human IgG antibodies (Jackson, catalog No. 109-116-170) were added, and the cells were resuspended at 100 μL per well, mixed well and incubated at 4° C. for 30 min. After washing, 100 μL of pre-cooled running buffer was added to resuspend the cells. The cells were mixed well and collected while flowing on an Attune™ NxT flow cytometer, and the data was analyzed using Graphpad Prism5 software. FIGS. 7-9 and Table 11 show the binding ability of the anti-BCMA/anti-CD3 multispecific antibodies to NCI-H929 cells (BCMA+++), MM1S cells (BCMA++), and RPMI-8226 cells (BCMA+).

human BCMA on cells [2] = target: T1, human BCMA on cells; test: cell-based or functional assay
human BCMA on cells [3] = target: T1, human BCMA on cells; test: flow cytometry, NCI-H929 cells
Method: as §1

[4] = target: T3, human CD3e (Acro, Cat. No. CDE-H5223) (human, UniProt P07766 23-126); test: SPR (Biacore T200), antibody captured by anti-hIgG, human CD3e as analyte, 1:1 model
T3 construct: also called human CD3e protein; hCD3e
T3 sequence (P07766 23-126 limits assumed): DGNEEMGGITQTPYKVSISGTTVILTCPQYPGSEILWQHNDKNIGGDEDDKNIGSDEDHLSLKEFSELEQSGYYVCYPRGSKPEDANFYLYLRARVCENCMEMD
Method: (§2) The affinity of the test antibody for human CD3e or human BCMA protein was determined by Biacore T200 (GE) as follows:
(§3) The response signals were detected in real time using Biacore software, and association and dissociation curves were obtained. The buffer used in the experiment was Biacore universal buffer (137 mM NaCl, 2.7 mM KCl, 10 mM Na₂HPO₄.12H₂O, 1.8 mM KH₂PO₄. 0.05% surfactant P-20 (w/v), pH 7.4). […] The flow rate in the flow cell was at 50 μL/min, the association was performed for 240 s, the dissociation was performed for 1400 s, the regeneration was performed using 3 M MgCl (GE) for 60 s, and the baseline was stable. Results were obtained by calculation according to the affinity and kinetics 1:1 binding mode in biacore evaluation software.

human BCMA on cells [5] = target: T1, human BCMA on cells; test: cell-based or functional assay; remark: listed apart in the source
T cell surface CD3 = target: T4, T cell surface CD3 (human, UniProt P07766 23-207); test: flow cytometry, human CD3+ T cells
T4 construct: whole, on cells; also called CD3^+ T cells
T4 sequence (P07766 23-207): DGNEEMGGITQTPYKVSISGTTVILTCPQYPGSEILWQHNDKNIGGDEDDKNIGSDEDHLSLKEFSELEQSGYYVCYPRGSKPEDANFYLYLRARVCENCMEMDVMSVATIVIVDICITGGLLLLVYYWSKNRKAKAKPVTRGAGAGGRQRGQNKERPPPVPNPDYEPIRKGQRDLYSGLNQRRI
Method: Human PBMC cells were sorted for CD3⁺ T cells using CD3 magnetic beads (Miltenyi, catalog No. 130-097-043): the cryopreserved PBMCs were thawed, and washed by centrifugation twice for counting. Running buffer (MACS, catalog No. 130-091-221) was added in a cell-to-buffer ratio of 10⁷:80 μL, CD3 beads were added in a cell-to-bead ratio of 10⁷:20 μL, and the mixture was mixed well and incubated at 4° C. for 15 min. The cells were washed with buffer in a cell-to-buffer ratio of 10⁷:1-2 mL. After centrifugation, the supernatant was discarded, and 500 μL of buffer was added to resuspend the cell pellet. The LS sorting column (Miltenyi, catalog No. 130-042-401) was placed on the MidiMACS Starting Kit (LS) magnetic rack (Miltenyi, catalog No. 130-091-051). After rinsing, the cell suspension was added and washed thrice. The LS sorting column was removed from the magnetic rack and placed on a clean centrifuge tube and 5 mL buffer was added to collect the sorted CD3⁺ T cells. After counting, the CD3⁺ T cells were adjusted to a cell density of 5×10⁶-10×10⁶ cells/mL using RPMI medium (Hyclone, catalog No. SH30809.01) containing 2% FBS (fetal bovine serum) and seeded in a 96-well U-bottom cell culture plate (Costar, catalog No. 3799) at 50 μL per well. The test antibodies at different concentrations were prepared using the medium described above. […] The antibodies at different concentrations were added to the 96-well cell culture plate described above at 50 μL per well, mixed well and incubated at 4° C. for 1 h. The cells were washed with pre-cooled running buffer (MACS, catalog No. 130-091-221), and the supernatant was discarded. Pre-cooled fluorescent labeled goat anti-human IgG antibodies (Jackson, catalog No. 109-116-170) were added, and the cells were resuspended at 100 μL per well, mixed well and incubated at 4° C. for 30 min. After washing, 100 μL of pre-cooled running buffer was added to resuspend the cells.

human BCMA protein = target: T2, human BCMA protein; test: SPR (Biacore T200), antibody captured by anti-hIgG, human BCMA as analyte, 1:1 model
Method: as §2, §3

human BCMA on cells [6] = target: T1, human BCMA on cells; test: cell-based or functional assay; remark: listed apart in the source

Row | Binder | EC50 (human BCMA on cells [1]) [nM] | Top(MFI) (human BCMA on cells [1]) | Lysis EC50, MM1S cells with human PBMCs (E:T 10:1, 24 h, LDH release) (human BCMA on cells [2]) [nM] | Maximum lysis rate, MM1S cells with human PBMCs (human BCMA on cells [2]) [%] | EC50 (human BCMA on cells [3]) [nM] | Top(MFI) (human BCMA on cells [3]) | Kd [4] [nM] | Lysis EC50, NCI-H929 cells with human PBMCs (E:T 10:1, 24 h, LDH release) (human BCMA on cells [5]) [nM] | Maximum lysis rate, NCI-H929 cells with human PBMCs (human BCMA on cells [5]) [%] | EC50 (T cell surface CD3) [nM] | Top(MFI) (T cell surface CD3) | Kd (human BCMA protein) [nM] | Lysis EC50, RPMI-8226 cells with human PBMCs (E:T 10:1, 24 h, LDH release) (human BCMA on cells [6]) [nM] | Maximum lysis rate, RPMI-8226 cells with human PBMCs (human BCMA on cells [6]) [%]
1 | anti-BCMA/anti-CD3 multispecific antibody PC3 (bispecific antibody, human IgG1, lambda, L234A L235A, Trivalent; three chains; human IgG1 knobs-into-holes Fc) QVQLVESGGGLVQPGGSLRLSCAASGFTFNSACMGWFRQAPGKGREGVSRIETGYGGTVYADSVKGRFTISRDNSKNTVYLQMNSLRAEDTAVYYCAAKRSWCTPTWWHELDYNYWGQGTQVTVSSGEPKSSDKTHTCPPCPAPEAAGGPSVFLFPPKPKDTLMISRTPEVTCVVVDVSHEDPEVKFNWYVDGVEVHNAKTKPREEQYNSTYRVVSVLTVLHQDWLNGKEYKCKVSNKALAAPIEKTISKAKGQPREPQVCTLPPSREEMTKNQVSLSCAVKGFYPSDIAVEWESNGQPENNYKTTPPVLDSDGSFFLVSKLTVDKSRWQQGNVFSCSVMHEALHNHYTQKSLSLSPGK heavy: EVQLVESGGGLVQPGGSLRLSCAASGFTFNTYAMNWVRQAPGKGLEWVARIRSKYNNYATYYADSVKDRFTISRDDSKNTAYLQMNNLKTEDTAMYYCVRHGNFGNSYVSWFAYWGQGTLVTVSSASTKGPSVFPLAPSSKSTSGGTAALGCLVKDYFPEPVTVSWNSGALTSGVHTFPAVLQSSGLYSLSSVVTVPSSSLGTQTYICNVNHKPSNTKVDKKVEPKSCDKTHTCPPCPAPEAAGGPSVFLFPPKPKDTLMISRTPEVTCVVVDVSHEDPEVKFNWYVDGVEVHNAKTKPREEQYNSTYRVVSVLTVLHQDWLNGKEYKCKVSNKALAAPIEKTISKAKGQPREPQVYTLPPCREEMTKNQVSLWCLVKGFYPSDIAVEWESNGQPENNYKTTPPVLDSDGSFFLYSKLTVDKSRWQQGNVFSCSVMHEALHNRFTQKSLSLSPGK light: QVQLVESGGGLVQPGGSLRLSCAASGYSSNVACMAWYRQAPGKGLEWVATIVADFGTTNYAASVKGRFTISQDNSKNTVYLQMNSLRAEDTAVYYCAATQRGGIDWCDEINYWGQGTLVTVSSGGGGSELVVTQEPSLTTSPGGTVTLTCRSSTGAVTTSNYANWVQQKPGQAPRGLIGGTNKRAPGTPARFSGSLLGGKAALTITGVQPEDEAEYYCALWYSNLWVFGGGTKLTVLGQPKANPTVTLFPPSSEELQANKATLVCLISDFYPGAVTVAWKADGSPVKAGVETTKPSKQSNNKYAASSYLSLTPEQWKSHRSYSCQVTHEGSTVEKTVAPTECS | 0.338 | 124000 | 0.0407 | 36 | 0.837 | 223000 | 1.17 | 0.187 | 35 | 85.8 | 98400 | 0.0347 | 0.0142 | 39
2 | anti-BCMA/anti-CD3 multispecific antibody BC24 (bispecific antibody, human IgG1, lambda, L234A L235A, Trivalent: 1A10 VHH and 1A11 VHH in tandem on one Fc polypeptide, anti-CD3 Fab on the other; human IgG1 knobs-into-holes Fc) QVQLVESGGGSVQAGGSLRLSCAASGYSSNVACMAWYRQAPGKEREWVATIVADFGTTNYAASVKGRFTISQDNAKNTVYLQMNSLKPEDSAMYYCAATQRGGIDWCDEINYWGQGTLVTVSSGGGGSGGGGSQVQLVESGGGSVQAGGSLRLSCAASGVTFNSACMGWFRQAPGKEREGVARIETGYGGTVYADSVKGRFTISRDNAKNTVYLQMNSLKPEDTAMYYCAAKRSWCTPTWWHELDYNYWGQGTQVTVSSGEPKSSDKTHTCPPCPAPEAAGGPSVFLFPPKPKDTLMISRTPEVTCVVVDVSHEDPEVKFNWYVDGVEVHNAKTKPREEQYNSTYRVVSVLTVLHQDWLNGKEYKCKVSNKALAAPIEKTISKAKGQPREPQVCTLPPSREEMTKNQVSLSCAVKGFYPSDIAVEWESNGQPENNYKTTPPVLDSDGSFFLVSKLTVDKSRWQQGNVFSCSVMHEALHNHYTQKSLSLSPGK heavy: EVQLVESGGGLVQPGGSLRLSCAASGFTFNTYAMNWVRQAPGKGLEWVARIRSKYNNYATYYADSVKDRFTISRDDSKNTAYLQMNNLKTEDTAMYYCVRHGNFGNSYVSWFAYWGQGTLVTVSSASTKGPSVFPLAPSSKSTSGGTAALGCLVKDYFPEPVTVSWNSGALTSGVHTFPAVLQSSGLYSLSSVVTVPSSSLGTQTYICNVNHKPSNTKVDKKVEPKSCDKTHTCPPCPAPEAAGGPSVFLFPPKPKDTLMISRTPEVTCVVVDVSHEDPEVKFNWYVDGVEVHNAKTKPREEQYNSTYRVVSVLTVLHQDWLNGKEYKCKVSNKALAAPIEKTISKAKGQPREPQVYTLPPCREEMTKNQVSLWCLVKGFYPSDIAVEWESNGQPENNYKTTPPVLDSDGSFFLYSKLTVDKSRWQQGNVFSCSVMHEALHNRFTQKSLSLSPGK light: ELVVTQEPSLTTSPGGTVTLTCRSSTGAVTTSNYANWVQQKPGQAPRGLIGGTNKRAPGTPARFSGSLLGGKAALTITGVQPEDEAEYYCALWYSNLWVFGGGTKLTVLGQPKANPTVTLFPPSSEELQANKATLVCLISDFYPGAVTVAWKADGSPVKAGVETTKPSKQSNNKYAASSYLSLTPEQWKSHRSYSCQVTHEGSTVEKTVAPTECS | 0.535 | 107000 | 0.00937 | 21 | 1.56 | 186000 | 0.286 | 0.0218 | 40 | 38.3 | 163000 | 0.0627 | 0.0113 | 29

From patent US20240182592A1 (CHIA TAI TIANQING PHARMACEUTICAL GROUP, published 2024)
